Test results reported in a protein production outcome set (Wang et al. 2014).

Assay: label from the status in PepcDB records
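Note: failed if final PepcDB status was selected cloned or expressed and not failed if soluble or beyond.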

Sequence	protein production
MSIESSATPTTPNAEALQLNSTEVRILGCLIEKQATNPETYPLTLNALVIACNQKTSRDPVMNLTQGQVGQSLRALEGRGLTRLVMGSRADRWEHKVDKGLELVPAQVILTGLLLLRGPQTVSELLTRSNRMHDFEDSEQVVHQLERLIARGLATLVPRQSGQREDRYMHLIGDPEDLQD	not failed
MSIIDLTKLEQKVATMWDSILTNSPFIHEVLDGKATKALYAIYMTETYHYTKHNAKNQALVGIMGKDLPGKYLSFCFHHAHEEAGHELMALSDIASIGFDREDVLSSKPLPATETLIAYLYWISATGNPVQRLGYSYWAENVYGYIDPVLKAIQSTLDLTPQSMKFFIAHSKIDAKHAEEVNEMLHEVCKTQEDVDSVVAVMENSLVLTARILDDVWKEYQLFQSGASDRYAFLRDNA	not failed
MSIITRLFNNSDFEKLNQLCKLYDDLGYPTNENDLKKRLKKITNHDDYFLLLLIKENKIIGLSGMCKMMFYEKNAEYMRILAFVIHSEFRKKGYGKRLLADSEEFSKRLNCKAITLNSGNRNERLSAHKLYSDNGYV	failed
MSIKAGFDDRALARVEAAIRADVESGIYDGAVIKVARHGQIALDATIGFSNRRAGAAMREDAVFKVLSLTKAFTTTLVLEAIDLGLLSLTTRVVDVIPEFWGRDLFRSGRKERVNVGHLLTHRAGLSPTPQPLPYDQLHNFSETIQAICALDVVGEPGKAFNYSPTVNHALLGEMVRRVHGAASLAELMDQRLFSRLGMSSTSLGPTSQIRDRLVPLTSDFPEGGWLTNADIKAVADAIEAPNSQMPWVGAMTSAQDVFVFAEMLREQGTVRDERILSPAVVRKATTLQTGDAINDLYKLLADARHWDLPAGNMGLGFALGGDGLTVSQFGTLTSPGTFGNFGAGSTLFWVDPESQITFVCLTAKVMEESENILRFQRLSDLVASAAL	failed
MSIKIGLLGFGTVASGIPFLLKENGEKVFAASRDQLEIAKVLVKDDEEKDRLIAAGNDYNFVTNVDEILNDEEIQIVVELMGRIEPARTFITKALEAGKNVVSANKDLIATHGKELIALAQDKGVAFYYEAAVAGGIPILRTLANSLTSDKVTRILGVLNGTSNFMMTKMVDEGWSYEDALKTAQELGYAESDPTNDVEGYDAAYKAVILSQFGFGATIDFDDVSHKGITNISTDDVAVAQELGYVIKLVGDVREVESGISAEVSPTFLPKNHPLASVNDVMNAVFVESIGIGESMYYGPGAGQKPTATSVLADIIRIARRLSDGNVGKPFNEFRRDLPLANPADVKSNYYFALDTPDEKGKILHLSEIFNSEDISFEQVLQQKANGTTARIVVITHAMSKTQLKAVTEKLEAAEDFTVVNTLKVLSNLEHHHHHH	not failed
MSIKPKIMISSLDAERLEILLETLSQNAFPGRDDLEAELARAEVVDPEEIPPTVVTMNSTVRFRVESSAEEFCLTLVYPKDVDTSGEKISILAPVGSALLGLAQGDEIEWPKPGGGVLRVRIVEVTYQPERSGEYYR	not failed
MSIKVEDYFAPETFQRMKAFADKQETPFVVIDKQTIADAYDQLTDCFPFARIYYAVKANPATEITELLRDKGSNFDIASIYELDKVMKTGVGPERISYGNTIKKSKDIRYFYEKGVRLFATDSEADLRNIAKAAPGAKVYVRILTEGSTTADWPLSRKFGCQTDMAMDLLILARQLGLEPYGISFHVGSQQRDISVWDAAIAKVKVIFERLKEEDGIVLKMINMGGGFPANYITKTNDLETYAEEIIRFLKEDFGDDLPEIILEPGRSLIANAGILVSEVVLVARKSRTAVERWVYADVGKFSGLIETMDESIKFPIWTEKQGEMEEVVIAGPTCDSADIMYEHYKYGLPLNLASGDRLYWLSTGAYTTSYSAVEFNGFPPLKAFYL	failed
MSILLSKTLRELIFWMAWIIIPLIMEIIPAFGGFFILVKKSFNSNREGFIGTLPEITLIIPIYNSEATLKGCIESIYNCSYPTRLIDLILVNNMSSDDSFQVFSQCQKEFCGLSMRYMNSKQGKSKALNMALFNSAGKYIIHIDSDGKLHYDAIKNMIVRFEKNPNIHCMTGAILSDIEGIEKTHKRFLKLIRRCEFFEYAQAFLAGRNFESEINSIYTLSGAFSAFRKSTILKTQLYNSKTVCEDTHITFQVRRLLKKKVYLCENSIFFVDPIENLNKLYTQRQRWQRGEIEVSHMFFKNKMNSPLGFFHNFMIRVVMYDHTFAFPRMIWYFAIIFLFFMNYPVKLVVGSLVIIYMLYVLSTFLFYLNVRIYLKEYKSIREYYKARWGYIFLMPIYNFVVFWIRFAGIINSIKIKSKWKTLTLNDEWTAFLKVIQSDFRMIGKGINKIRRLVND	failed
MSILQGILDTYAQFFDLDMWIKVLQDPVSWGLIGTLVVLEGLLSADNALVLAVMVKHLPEEKRKKALFYGLIGAYVFRFIAIGIGMFLIKLAWVKVLGALYLAWLSVKYFIDKRKGNAEEEEAHGMNQNSILFRMFGVFWGTVAMVELMDIAFSVDSVLAAFGVSNEVWILLLGGMLGILMMRGIAGVFLKLLERIPELETTAYILILIIAAKMLLSVIHIEISHTVFFIILVVAFGATFILHYMKNSGQAKEEVAATKEDNK	failed
MSINSNSVFNNSGRVSAAGIASVVGLAVLSAVAVTGGAVKVLVISWVAFAAMALGAWLGARADETNPYRLVWGYGLASGAMVTSAAMFLVPQAMGLGGQAGAARIGGVGIAAGLVTGYGTHTIGHRLTHIETSFDMTTIAIAAHALSAGLVIGLVYASMPDLGILLGLAIVSHKGPAGYAAARRLGRSDKSATALLLPAAGVGLTAIPSALLPVPESALLNAVIFGFAAGIFLHVAMDFLPNCEAGSEIDEVCELHDHSHDLLDELRTHAVGSTVVGAAVIVLAWVAI	failed
MSIPKEQYNFNKLQKRLRRNVGQAIADFNMIEDGDKIMVCLSGGKDSYTLLSILMNLQKSAPIQFSLIAVNLDQKQPGFPEHILPEYLEQLGVEYKIVEENTYGIVKEIIPEGKTTCSLCSRLRRGILYRTATEVGATKIALGHHRDDILETLFLNMFYGGKLKGMPPKLMSDDGKHIVIRPLAYAREKDIERFAQAKNFPIIPCNLCGSQPNLQRQVIKEMLRDWDKRYPGRIETMFRATQNIVPSHLCDTQLFDFANIKQGDEIINGGDLAFDKDDIPTSPILSDDEDERPDFSQARLDVVEVK	not failed
MSIRSLGYLRIEATDMAAWREYGLKVLGMVEGKGAPEGALYLRMDDFPARLVVVPGEHDRLLEAGWECANAEGLQEIRNRLDLEGTPYKEATAAELADRRVDEMIRFADPSGNCLEVFHGTALEHRRVVSPYGHRFVTGEQGMGHVVLSTRDDAEALHFYRDVLGFRLRDSMRLPPQMVGRPADGPPAWLRFFGCNPRHHSLAFLPMPTSSGIVHLMVEVEQADDVGLCLDRALRRKVPMSATLGRHVNDLMLSFYMKTPGGFDIEFGCEGRQVDDRDWIARESTAVSLWGHDFTVGARG	not failed
MSISSKAKEILTQFTREVWSEGNIEASDKYIAPKYTVLHDPGDPWEGRELDVAGYKERVKTLRAAFPDQCFDIQGLFADGDAVVMTWLWTATHKEDIPGFPSTGKQIKMSGATVYYFDGNRLTGHWQITDRLGVYQQLRQAAAGA	not failed
MSISWSMSRNMFKLAHISDVHLGPLPRLSIQELFSKRITGFVNWHRNRRKHLFASTLDLLLDDIRTHRADHLAVTGDLVNLASGIEIRAAAAWLRALGDPADTSVVPGNHDAYVPGAYEKSMRAWYDYVRGDLAPPQWQEDRRIFPYLRVRDKVAIVGCSTAVATPPFAASGFFSARQARDTVNMLRAAGEAGLFRVVMIHHPPIRGATAFHKRMIGIRRFAAVISTGGAELVLHGHTHLNTLHWLRGQVQPVPVVGIASASQGPGSIKPPAAYNLFSIDGAPGAWELTGERFSLNRTGDAMMPESVDIFAPLEHHHHHH	failed
MSITQRKNGTYEVSISWYDSLGKRRTKSKRGFKTKPEAVLGEAKLRLEYEEVSVREKVDQQDTFAEYFKNWYIFYKKPKVSKVTLNRYQYTYNVINEYFGNKLLKDITRANYQKFIVKYGQNHSPNTMKMINNCIKACVKNAVYDEEIKKDFTYNIELISNRDNVVQVEYLNVAEIKALLNSTISKLNPRYTSNYMIVTAILTGARLSEIAGLTWNDINFNFNTININKSYDYFAKSFKPTKNKSSNRIIKINNTLCDVLKELRTNNTDLVFKNKRGLIPTSNAVNKALRARLEELNINRRNFHFHSLRHSHVAFLLSQGIDIYPIAQRLGHSDITTTTRTYAYLIEEYKDKNDAIIIAGLDKLSAEKAPTKVPAKSDI	failed
MSIVIMFKYVSDVSNIYHNIITSFIENKNIAIDATLGNGHDCDFLSELFKKVYAFDIQEEAVNSYKSKNKENVEVILDSHENFETYIKEENVDCIVYNLGYLPGNNKEVTTVAHSTLKSIEIGLDLLGDNGLMIIALYSGHEEGKKEKDAVLQFTSKLPKNKYGVLHTEFTNRAKSAPSLVVIEKKFK	failed
MSKATTPGDQPKVSEMDFYQLLGVEKMASEAEIKSAYRKLALKYHPDRNPNDAHAQEEFKKVSIAYSVLSDPNKRRQYDVSGPSENQLDFEGFDVSEMGGVGRVFGALFSKLGVPIPTQIVPKVLAQARHICMGQECDVQARQLPPGETVTSSVSKQHAHFYEINIQEEHRKNGVAIICKSSSSKFKLVLFDKEGGVRMIQESGKRGKAGTQADMFFVPYNVANIQEFNAMKYHLEDKETPLAFHYLDSFEMQTATLLETRKHYIAVYGDNWISDVKYSITFLPVEPSAVEQLNEIQDTEKSISIIKKEMLDFQREFTEAKRKYDEAVAKLKVQDDTILKALAHREELYNEVLQKSQEPYNKKVSPSKSSGGLLGWFK	not failed
MSKDAQQISALRRFSVSIISVALLVISGTVGYMYLENMSLLDALYMTVITVATVGFSEVRPLDDVGKIFTMVLIVGGTGIFFFTLTSVAVFFVSGEWKEHWEQQRNERMLRKLNDHFIICGYGRLGGSVAEELRAKAVPFVVIDNMIDNVLRARDEGFLAIKGNAADEEVLADAGLHRAKGLIAAAGNDAENVFIVLTARNLKPNLYIVARADCDGSESKLRRAGAEKVVMLYRSAGKRMASLLTEPELEEYLDELSNANNLNLRIAQYLVGDNSPLVGKSFQEVDLYNNHRINVVGYKLPDGELHTTPRPAEIIQKNGTIIVIGKSDDLEMLCKLAQGETQR	failed
MSKDEIKKPVVLIYCDTIEGTNIYLKKICEGLEEEGVPFQIQQVEKVEDSVEVLAQNASRNSNLGIGIGVLKNGDCALLQRRLPPNLPIQTLRGEKYDPNLYRNIGINAARLAKNLPLVFA	not failed
MSKDSESNLAQRQSQPKAHADLRINSHWIIPIENTTDHNLVSNILIDHCLLIKDGIILAIEPQSSCQIPATETLDLGQQVLMPGWVNAHGHAAMSLFRGLADDLPLMTWLQEHVWPAEAQHVDEHFVKQGTELAIAEMIQSGTTTFADMYFYPQQSGEAALAAGIRAVCFAPVLDFPTNYAQNADEYIRKAIECNDRFNNHPMNEQGLVQIGFGPHAPYTVSDEPLKEITMLSDQLDMPVQIHLHETDFEVSESLETFNKRPTQRLADIGFLNERVSCVHMTQVDDGDIKILQKTGASIIHCPESNLKLASGFCPIAKLSAANIPLAIGTDGAASNNDLDMFSETKTAALLAKGVSQDASAIPAIEALTMATLGGARALGIDDITGSLKPGKAADIQAIDLNTLSSQPVFDPVSHMVYCTKSTQVSHVWVNGRCLLKNGELTTLNEETLINHAKAWASAIRTPIK	not failed
MSKFYSEQFKRDAVALYENNENLSLAAAAAELRVNRASLHQWKKELGTGKRTRMIEAKAQAEAASDAERIRALEKENAKLREERDILRKAAKYFAEETSWLEHHHHHH	failed
MSKGKKIFAIIFGIILVLFLAVVGMGAKLYWDVSKSMDKTYETVERSKKSQVNLNNKEPFSVLLLGIDTGDDGRVEQGRSDTTIVATVNPRDKQTTLVSLARDTYVDIPGQGKQDKLNHAYAFGGASLAMDTVENYLNIPINHYVSINMAGLKELVNAVGGIEVNNNLTFSQDGYDFTIGKISLDGEQALSYSRMRYEDPNGDYGRQERQRKVIEGIVQKVLSLNSVSNYQEILTAVSDNMKTDLSFDDMKKIALDYRSAFGKVKQDQLQGTGFMQDGVSYQRVDEQELTRVQQELKNQLNTK	failed
